For test [1], the target named is T1, human C1s mutant M18 (V288T) (human, UniProt P09871 16-688).
T1 construct: The entry is the mutant itself
T1 sequence: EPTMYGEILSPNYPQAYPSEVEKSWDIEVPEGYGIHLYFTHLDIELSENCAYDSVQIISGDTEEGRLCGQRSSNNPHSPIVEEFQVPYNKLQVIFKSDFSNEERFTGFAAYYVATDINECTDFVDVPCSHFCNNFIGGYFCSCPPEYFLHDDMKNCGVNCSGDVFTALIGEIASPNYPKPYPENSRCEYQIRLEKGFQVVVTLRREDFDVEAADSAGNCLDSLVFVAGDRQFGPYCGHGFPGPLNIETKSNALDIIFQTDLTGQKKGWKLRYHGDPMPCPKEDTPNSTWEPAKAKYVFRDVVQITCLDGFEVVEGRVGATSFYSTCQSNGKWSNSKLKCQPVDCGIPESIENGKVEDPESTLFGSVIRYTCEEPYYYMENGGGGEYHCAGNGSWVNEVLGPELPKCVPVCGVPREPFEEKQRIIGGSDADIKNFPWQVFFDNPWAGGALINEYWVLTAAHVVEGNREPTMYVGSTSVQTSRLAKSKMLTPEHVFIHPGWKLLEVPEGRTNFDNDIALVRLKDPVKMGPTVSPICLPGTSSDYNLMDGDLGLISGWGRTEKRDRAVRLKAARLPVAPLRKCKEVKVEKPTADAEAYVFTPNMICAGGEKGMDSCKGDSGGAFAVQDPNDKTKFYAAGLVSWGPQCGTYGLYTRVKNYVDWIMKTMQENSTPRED
The test can be described thus: ELISA, plate coated with human C1s mutant M18: V288T, OD450nm. The procedure:
ELISA was carried out by first coating 96-well plates with 200 ng/well of full-length or truncated C1s proteins overnight. The next morning, plates were blocked with SuperBlock T20 blocking buffer (Thermo Scientific 37536) for 1 h with gentle shaking. Then, various concentrations of anti-C1s antibodies diluted in SuperBlock T20 blocking buffer were added to the plates and incubated for 1 h with gentle shaking. Mouse IgG (Sigma-Aldrich 15381) and human IgG1 (BioXCell BP0297) were used as negative controls. The plates were washed before incubating with HRP conjugated secondary antibodies diluted in SuperBlock T20 blocking buffer (goat anti-mouse IgG (H+L) cross-adsorbed secondary antibody HRP (Invitrogen G-21040) or goat anti-human IgG antibody, HRP conjugate (Millipore AP309P)) for 1 h with gentle shaking. At last, the plates were washed and color developed with ELISA liquid HRP substrate (Sigma-Aldrich), followed by stopping the reaction with addition of 1M H₂SO₄ in the same volume as the ELISA liquid substrate. Bound antibody was measured by absorbance at OD₄₅₀ₙₘ.
Binding of anti-C1s antibodies to mutants M1-M20 of human C1s was measured by ELISA as described in Example 4, and results are shown in FIGS. 6B-6U. All anti-C1s humanized variants including hz2-7(H1L2), hz2-8(H1L2 G80A) and hz2-8(H1L2 G80A/T82A) maintained strong binding properties to the majority (16 out of 20) of C1s mutants including M1 (FIG. 6B), M2 (FIG. 6C), M3 (FIG. 6D). M4 (FIG. 6E), M7 (FIG. 6H), M8 (FIG. 6I), M10 (FIG. 6K), M11 (FIG. 6L), M12 (FIG. 6M), M13 (FIG. 6N), M15 (FIG. 6P), M16 (FIG. 6Q), M17 (FIG. 6R), M18 (FIG. 6S), M19 (FIG. 6T) and M20 (FIG. 6U).

In test [2] the target is T2, active human C1s (CompTech A104 C1s Enzyme) (human, UniProt P09871 16-688).
T2 construct: also called human active C1s; active C1s protein
T2 sequence (looked up): T1 sequence with T288V
In words: BLI (Octet RED96e), antibody on AHC biosensor; HuC1s Form: Active; R^2 0.9998. How it is done:
Bio-Layer Interferometry technology was used for anti-C1s antibody affinity measurement and binding kinetics determinations with OCTET® RED96e system (Sartorius AG). Pre-hydrated Anti-Human IgG Fc Capture (AHC) biosensors were first equilibrated in 1×KB (Kinetic Buffer, 1×PBS pH 7.4+0.02% Tween-20+0.1% BSA) for 120 sec for the first baseline, followed by loading with […] anti-C1s antibody (2-7, FIG. 3A; 2-8, FIG. 3B; hz2-7(H1L2), FIG. 3C; hz2-8(H1L2 G80A/T82A, FIG. 3D) onto AHC biosensors for 240 sec. Then, the second baseline signal was established for 120 sec before association with various concentrations of active human C1s (CompTech A104) for 240-360 sec. At last, analyte was dissociated in 1×KB for 360 sec. Anti-C1s antibodies 2-7 and 2-8 were also analyzed against human C1s proenzyme (CompTech A103) (data not shown). Data analysis was carried out using OCTET® Data Analysis HT Software (Sartorius AG). KD, kₒₙ, koff and R² values were calculated for each antibody and target combination, as summarized in FIG. 3E showing high affinity binding with KD values in the low nanomolar to picomolar range.

Here are results for three molecules from patent publication US20230051715A1 (MABWELL THERAPEUTICS, published 2023).

Changes are numbered by the printed parent chain. Numbers in names are those of the source.

B1: Anti-C1s antibody hz2-8 (H1L2 G80A) (antibody, V domains shown)
VH: QVQLVQSGAEVKKPGASVKVSCKASGFNIKEYYMHWVRQAPEQGLEWMGWIDPENADTIYAQKFQGRVTITADTSTNTAYMELSSLRSEDTAVYYCARSRLFFAYWGQGTLVTVSS
VL: DIQMTQSPKSLSASVGDRVTITCRASQDVRTALDWYQQKPGQSPKLLIYSASYRYSGVPSRFSGSGSGTDFTLTISSLQPEDFATYYCQQQYTTPYTFGQGTKLEIKR
notes: Humanized variant with G80A in HC CDR2 (already in the entry), human IgG1 / kappa
Take B1: in test [1], the EC50 (usually the concentration at which the effect is half-maximal) was 3 ng/mL.

B2: Anti-C1s antibody hz2-8 (H1L2 G80A/T82A) (antibody, V domains shown)
VH: B1 VH with T58A
VL: B1 VL
notes: Humanized variant with G80A and T82A in HC CDR2 (already in the entry), human IgG1 / kappa
For B2, the EC50 in test [1] stood at 4 ng/mL. Besides, in test [2], the Kd (usually the concentration at which binding is half-saturated) amounted to 1.2 nM, the koff (usually a measure of how fast the partners let go of each other) turned out to be 0.00029 s⁻¹ and the kon (commonly the second-order rate constant of association) is 240000 M⁻¹ s⁻¹.

B3: Anti-C1s antibody hz2-7(H1L2) (antibody, V domains shown)
VH: EVQLLESGGGLVQPGGSLRLSCAASGFTFSNYFMNWVRQAPGKGLEWVSEIRLKFTNYATHYADSVKGRFTISRDDSKSTLYLQMNSLRAEDTAVYYCTRDYGSRNGYFDYWGQGTLVTVSS
VL: DIVMTQTPLSLPVTPGEPASISCRSSKSLLHSNGNTFLYWFLQKPGQSPQLLIYRMSNLASGVPDRFSGSGSGTDFTLKISRVEAEDVGVYYCMQHLEYPYTFGGGTKLEIKR
notes: Humanized, human IgG1 / kappa; also called hz2-7(1L2)
In turn, B3 had an EC50 in test [1] of 5 ng/mL. Also, in test [2], the Kd is 0.24 nM, the koff was found to be 7e-05 s⁻¹ and the kon amounted to 290000 M⁻¹ s⁻¹.
